Paper PMC10239695
Blank lines part the entries; values can stand above or below the molecule they belong to.

Legend:
[1] = target: IBSSαγ complex
[2] = substrate: T1, BSSαγ complex (UniProt O68395)
T1 sequence 1: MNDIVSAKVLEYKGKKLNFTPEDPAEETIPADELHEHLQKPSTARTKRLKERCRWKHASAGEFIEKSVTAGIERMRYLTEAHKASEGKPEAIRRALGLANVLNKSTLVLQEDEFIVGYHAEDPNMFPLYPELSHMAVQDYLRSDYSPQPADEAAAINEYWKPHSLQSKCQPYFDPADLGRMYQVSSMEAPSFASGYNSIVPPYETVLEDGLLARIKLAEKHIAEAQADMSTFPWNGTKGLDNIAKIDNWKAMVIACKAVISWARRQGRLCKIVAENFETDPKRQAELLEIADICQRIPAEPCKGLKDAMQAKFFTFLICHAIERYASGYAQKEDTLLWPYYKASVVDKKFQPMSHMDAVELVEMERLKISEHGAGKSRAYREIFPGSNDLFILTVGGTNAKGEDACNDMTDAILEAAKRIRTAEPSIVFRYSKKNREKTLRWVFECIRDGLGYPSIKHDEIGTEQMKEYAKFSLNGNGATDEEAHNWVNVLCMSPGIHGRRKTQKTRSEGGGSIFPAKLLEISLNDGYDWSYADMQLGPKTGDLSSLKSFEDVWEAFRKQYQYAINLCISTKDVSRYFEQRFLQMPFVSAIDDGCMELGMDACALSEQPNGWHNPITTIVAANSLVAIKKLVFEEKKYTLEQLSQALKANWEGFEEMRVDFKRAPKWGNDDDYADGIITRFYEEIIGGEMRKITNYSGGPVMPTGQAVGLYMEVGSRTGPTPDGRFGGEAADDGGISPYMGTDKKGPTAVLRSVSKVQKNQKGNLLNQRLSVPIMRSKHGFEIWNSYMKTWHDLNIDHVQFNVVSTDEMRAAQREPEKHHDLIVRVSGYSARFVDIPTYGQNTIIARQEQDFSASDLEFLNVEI
T1 sequence 2: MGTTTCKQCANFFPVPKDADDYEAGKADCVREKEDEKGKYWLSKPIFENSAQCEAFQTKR

- AdoMet cleavage by as purified IbsAE with IBSSαγ added (dAdo by LCMS, 2 h endpoint, n = 3); 1.1 μM dAdo without IBSSαγ [1]: 47.6 μM dAdo
- AdoMet cleavage by reconstituted IbsAE with IBSSαγ added (dAdo by LCMS, 2 h endpoint, n = 3); 1.4 μM dAdo without IBSSαγ [1]: 46.7 μM dAdo
Molecule: 4-isopropylbenzylsuccinate synthase activating enzyme (IbsAE)

- AdoMet cleavage by as purified IbsAE with IBSSαγ and IBSSβ added (dAdo by LCMS, 2 h endpoint, n = 3); 47.6 μM dAdo without IBSSβ [1]: 7.2 μM dAdo
- AdoMet cleavage by reconstituted IbsAE with IBSSαγ and IBSSβ added (dAdo by LCMS, 2 h endpoint, n = 3); 46.7 μM dAdo without IBSSβ [1]: 5.4 μM dAdo
Molecule: 4-isopropylbenzylsuccinate synthase beta subunit (IBSSβ), affinity tag removed (from UniProt A0A096ZP03 1-73) (natural protein)

B1: Benzylsuccinate synthase beta subunit (BSSβ), affinity tag removed (natural protein)
chain: MEGSNMETGQNLQNQPHTEVGTARPCRSCKWQTPDPTDPHRGQCTANRHAMGGVWKRWLRDVENTTCSRHEEGKLSFRDHV
- benzylsuccinate formed from fumarate and toluene by activated BSSαγ (40 μM) with BSSβ (40 μM) added (assay yield by QToF-LCMS, n = 9); 0.7% without BSSβ (% assay yield) [2]: 92.3
